According to the supplement of paper PMC9112550, “Optimization of the antimicrobial peptide Bac7 by deep mutational scanning” (BMC Biology, 2022):

System: Escherichia coli TOP10
Experiment: shrunken log2 fold change of peptide-encoding DNA abundance (4.5 h post-induction vs induction); higher = less antimicrobial activity (less host growth inhibition)
Settings: time post-induction: 4.5 h; library: site-saturation at positions 5, 18, 19, 20
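Also: peptides expressed intracellularly from a pBAD plasmid library in pooled LB shake-flask culture, induced with 0.3% L-arabinose, DNA abundance read by NGS, three biological replicates, DESeq2 with apeglm shrinkage.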

Q: How did the “shrunken log2 fold change” value turn out when RRIRHRPPRLPRPRPRPKNLPRP was run?
A: Its value is 0.133.

Q: RRIRIRPPRLPRPRPRPSWFPRP was tested. Which “shrunken log2 fold change” value did it give?
A: The value was -0.529.

Q: How did the “shrunken log2 fold change” value turn out when RRIRERPPRLPRPRPRPGLSPRP was run?
A: The value was -0.113.

Q: Which “shrunken log2 fold change” value does the source give for RRIRWRPPRLPRPRPRPPCKPRP here?
A: The value was -0.0735.

Q: With RRIRQRPPRLPRPRPRPGIQPRP as the sequence, how does the “shrunken log2 fold change” value read?
A: Its value is -0.056.

Q: With RRIRFRPPRLPRPRPRPMRIPRP as the sequence, how does the “shrunken log2 fold change” value read?
A: The value was 0.068.

Q: Which “shrunken log2 fold change” value does the source give for RRIRLRPPRLPRPRPRPVEQPRP here?
A: The value was -0.0062.

Q: For RRIRPRPPRLPRPRPRPDWHPRP, which “shrunken log2 fold change” value is on record?
A: The value was -0.159.

Q: How did the “shrunken log2 fold change” value turn out when RRIRLRPPRLPRPRPRPRVPPRP was run?
A: The value was 0.264.

Q: With RRIRERPPRLPRPRPRPETAPRP as the sequence, how does the “shrunken log2 fold change” value read?
A: The value was 0.0892.

Q: Which “shrunken log2 fold change” value does the source give for RRIRIRPPRLPRPRPRPCAGPRP here?
A: Its value is -0.000248.

Q: Which “shrunken log2 fold change” value does the source give for RRIRKRPPRLPRPRPRPNHTPRP here?
A: Its value is -0.213.

Q: RRIRQRPPRLPRPRPRPEGGPRP was tested. Which “shrunken log2 fold change” value did it give?
A: The value was 0.161.

Q: Which “shrunken log2 fold change” value does the source give for RRIRGRPPRLPRPRPRPPALPRP here?
A: Its value is 0.881.

Q: With RRIRDRPPRLPRPRPRPFLFPRP as the sequence, how does the “shrunken log2 fold change” value read?
A: The value was 0.212.

Q: Which “shrunken log2 fold change” value does the source give for RRIRKRPPRLPRPRPRPDLDPRP here?
A: Its value is 0.109.

Q: How did the “shrunken log2 fold change” value turn out when RRIRCRPPRLPRPRPRPRKYPRP was run?
A: Its value is -0.458.

Q: How did the “shrunken log2 fold change” value turn out when RRIRHRPPRLPRPRPRPCTAPRP was run?
A: The value was 0.0655.

Q: With RRIRGRPPRLPRPRPRPWEFPRP as the sequence, how does the “shrunken log2 fold change” value read?
A: The value was -0.0208.

Q: How did the “shrunken log2 fold change” value turn out when RRIRFRPPRLPRPRPRPEGKPRP was run?
A: The value was 0.143.

Q: With RRIRKRPPRLPRPRPRPKHEPRP as the sequence, how does the “shrunken log2 fold change” value read?
A: Its value is 0.134.

Q: With RRIRGRPPRLPRPRPRPCYMPRP as the sequence, how does the “shrunken log2 fold change” value read?
A: Its value is -0.328.

Q: How did the “shrunken log2 fold change” value turn out when RRIRQRPPRLPRPRPRPHSVPRP was run?
A: Its value is -0.0178.

Q: For RRIRFRPPRLPRPRPRPEAVPRP, which “shrunken log2 fold change” value is on record?
A: The value was 0.323.

Q: How did the “shrunken log2 fold change” value turn out when RRIRDRPPRLPRPRPRPVHKPRP was run?
A: The value was -0.233.

Q: With RRIRARPPRLPRPRPRPKTCPRP as the sequence, how does the “shrunken log2 fold change” value read?
A: The value was 0.161.

Q: How did the “shrunken log2 fold change” value turn out when RRIRARPPRLPRPRPRPMLSPRP was run?
A: The value was 0.133.

Q: RRIRIRPPRLPRPRPRPDHGPRP was tested. Which “shrunken log2 fold change” value did it give?
A: The value was 0.0143.

Q: Which “shrunken log2 fold change” value does the source give for RRIRKRPPRLPRPRPRPQVDPRP here?
A: The value was 0.288.

Q: For RRIRCRPPRLPRPRPRPDSAPRP, which “shrunken log2 fold change” value is on record?
A: The value was -0.181.

Q: Which “shrunken log2 fold change” value does the source give for RRIRVRPPRLPRPRPRPYNLPRP here?
A: The value was -0.414.

Q: RRIRDRPPRLPRPRPRPIDIPRP was tested. Which “shrunken log2 fold change” value did it give?
A: The value was -0.0169.

Q: With RRIRTRPPRLPRPRPRPNQSPRP as the sequence, how does the “shrunken log2 fold change” value read?
A: The value was -0.187.

Q: With RRIRHRPPRLPRPRPRPFHEPRP as the sequence, how does the “shrunken log2 fold change” value read?
A: The value was -0.2.

Q: RRIRIRPPRLPRPRPRPWFFPRP was tested. Which “shrunken log2 fold change” value did it give?
A: Its value is -0.198.

Q: How did the “shrunken log2 fold change” value turn out when RRIRPRPPRLPRPRPRPAESPRP was run?
A: Its value is 0.44.

Q: For RRIRCRPPRLPRPRPRPLWGPRP, which “shrunken log2 fold change” value is on record?
A: The value was -0.26.

Q: Which “shrunken log2 fold change” value does the source give for RRIRFRPPRLPRPRPRPKWHPRP here?
A: The value was -0.0786.

Q: How did the “shrunken log2 fold change” value turn out when RRIRHRPPRLPRPRPRPAMKPRP was run?
A: The value was 0.0279.

Q: Which “shrunken log2 fold change” value does the source give for RRIRIRPPRLPRPRPRPERLPRP here?
A: The value was 0.0553.

Q: How did the “shrunken log2 fold change” value turn out when RRIRFRPPRLPRPRPRPSSWPRP was run?
A: Its value is -0.105.

Q: How did the “shrunken log2 fold change” value turn out when RRIRCRPPRLPRPRPRPDPSPRP was run?
A: The value was -0.0265.

Q: How did the “shrunken log2 fold change” value turn out when RRIRRRPPRLPRPRPRPGYIPRP was run?
A: Its value is -0.177.

Q: With RRIRDRPPRLPRPRPRPQDYPRP as the sequence, how does the “shrunken log2 fold change” value read?
A: Its value is -0.112.

Q: For RRIRRRPPRLPRPRPRPQHQPRP, which “shrunken log2 fold change” value is on record?
A: Its value is 0.246.

Q: RRIRERPPRLPRPRPRPNHSPRP was tested. Which “shrunken log2 fold change” value did it give?
A: The value was -0.594.

Q: With RRIRERPPRLPRPRPRPHNFPRP as the sequence, how does the “shrunken log2 fold change” value read?
A: Its value is 0.0533.

Q: RRIRERPPRLPRPRPRPMTRPRP was tested. Which “shrunken log2 fold change” value did it give?
A: The value was -0.00264.

Q: How did the “shrunken log2 fold change” value turn out when RRIRKRPPRLPRPRPRPCLEPRP was run?
A: Its value is 0.0959.

Q: How did the “shrunken log2 fold change” value turn out when RRIRDRPPRLPRPRPRPWGCPRP was run?
A: Its value is 0.166.

Q: For RRIRNRPPRLPRPRPRPKCRPRP, which “shrunken log2 fold change” value is on record?
A: Its value is 0.0642.

Q: For RRIRGRPPRLPRPRPRPTPPPRP, which “shrunken log2 fold change” value is on record?
A: Its value is 1.06.

Q: With RRIRKRPPRLPRPRPRPWFSPRP as the sequence, how does the “shrunken log2 fold change” value read?
A: Its value is -0.329.

Q: RRIRVRPPRLPRPRPRPPNDPRP was tested. Which “shrunken log2 fold change” value did it give?
A: Its value is -0.17.

Q: Which “shrunken log2 fold change” value does the source give for RRIRYRPPRLPRPRPRPMHVPRP here?
A: Its value is 0.214.

Q: RRIRARPPRLPRPRPRPNQNPRP was tested. Which “shrunken log2 fold change” value did it give?
A: Its value is 0.0844.

Q: Which “shrunken log2 fold change” value does the source give for RRIRGRPPRLPRPRPRPYNYPRP here?
A: Its value is -0.129.

Q: RRIRTRPPRLPRPRPRPQFDPRP was tested. Which “shrunken log2 fold change” value did it give?
A: Its value is -0.652.

Q: Which “shrunken log2 fold change” value does the source give for RRIRNRPPRLPRPRPRPRKDPRP here?
A: The value was 0.00266.

Q: For RRIRYRPPRLPRPRPRPGPFPRP, which “shrunken log2 fold change” value is on record?
A: Its value is -0.189.

Q: RRIRQRPPRLPRPRPRPVKFPRP was tested. Which “shrunken log2 fold change” value did it give?
A: Its value is -0.0717.

Q: How did the “shrunken log2 fold change” value turn out when RRIRHRPPRLPRPRPRPLKNPRP was run?
A: The value was -0.273.

Q: RRIRGRPPRLPRPRPRPVKLPRP was tested. Which “shrunken log2 fold change” value did it give?
A: The value was -0.0292.

Q: RRIRERPPRLPRPRPRPEPKPRP was tested. Which “shrunken log2 fold change” value did it give?
A: The value was 0.0877.

Q: How did the “shrunken log2 fold change” value turn out when RRIRYRPPRLPRPRPRPAMCPRP was run?
A: The value was 0.00292.

Q: Which “shrunken log2 fold change” value does the source give for RRIRDRPPRLPRPRPRPLGKPRP here?
A: Its value is 0.188.

Q: RRIRPRPPRLPRPRPRPNAHPRP was tested. Which “shrunken log2 fold change” value did it give?
A: Its value is 0.247.

Q: How did the “shrunken log2 fold change” value turn out when RRIRIRPPRLPRPRPRPPYQPRP was run?
A: The value was 2.02.

Q: How did the “shrunken log2 fold change” value turn out when RRIRLRPPRLPRPRPRPFRAPRP was run?
A: Its value is 0.113.

Q: RRIRARPPRLPRPRPRPGFMPRP was tested. Which “shrunken log2 fold change” value did it give?
A: The value was 0.14.

Q: How did the “shrunken log2 fold change” value turn out when RRIRGRPPRLPRPRPRPSFSPRP was run?
A: The value was 0.154.

Q: For RRIRGRPPRLPRPRPRPLALPRP, which “shrunken log2 fold change” value is on record?
A: The value was 0.665.

Q: RRIRFRPPRLPRPRPRPGKVPRP was tested. Which “shrunken log2 fold change” value did it give?
A: The value was -0.216.

Q: How did the “shrunken log2 fold change” value turn out when RRIRQRPPRLPRPRPRPMPVPRP was run?
A: The value was -0.00339.

Q: RRIRARPPRLPRPRPRPLFYPRP was tested. Which “shrunken log2 fold change” value did it give?
A: The value was -0.312.
